Measurements: patent publication US20200199204A1 (UNITED STATES OF AMERICA AS REPRESENTED BY THE SECRETARY …, published 2020)

B1: CAP256-VRC26.10 (antibody, V domains shown)
VH: QAILVESGGGVVQPGRSLRLSCAASQFTFSGHGLHWVRQAPGKGLEWVASISFAGTKMDYADSVKGRFAISRDNSKNTLYLQMNSLRVEDTALYYCAKDMREYECEYWTSDYYDFGRPQPCIDRRGVVGIFDMWGQGTMVTVST
VL: QSVLTQPPSVSAAPGQKVTISCSGSSSNIGDNYVSWYQHLPGTAPKLLIYENTRRPSGIPDRFSGSKSGTSATLAITGLQTGDEADYYCGTWDVRPNRGAVFGTGTKVTVLG
B2: CAP256-VRC26.11 (antibody, V domains shown)
VH: EVQLVESGGGVVPPGKSLTLSCVASRFTFSAFGMHWVRQAPGKGLEWVASISFAGIKKYYADSVKGRFSISRDNSNTLFLQMNGLRGEDTGLYHCVKDMRELECEEWASDYYDFGKPQPCLDRRGVSGISAWWGPGTMVTVSS
VL: QSVLTQPPSVSAAPGQNVTISCSGPPSHIEKNDVSWYQRLPGMAPKMVIYESKRRPLGIPVRFSASRSGSSATLVITGLQTADEADYYCGTWDGRMNFGTGTTVSVLG
B3: CAP256-VRC26.12 (antibody, V domains shown)
VH: EVQLVQSGGGVVQPGRSLRLSCAAPYFEFGRYGFHWVRQAPGKGLEWVASISFAGRDYYHSPSVWGRFTISRDNSKNTLYLQMNSLRIEDTALYFCARDLRESECEEWESDYYDFGKKGPCVKPRGVAGGLDLWGQGTMVIVSS
VL: QSVLTQPPSVSTAPGQTVTVSCSGGTSNTGNNFVSWYQHLPGTAPKLLIYENNKRPLGVPDRFSGAKSGTSATLAITGLQTGDEGDYYCATWSGSLNIGTGTKVSVLG

target: HIV-1 Env of Q168.a2 (HIV-1); assay: cell-based or functional assay

| Binder | neutralization IC50 [µg/mL] |
| --- | --- |
| B1 | > 50 |
| B2 | > 50 |
| B3 | > 50 |

target: HIV-1 Env of KER2018.11 (HIV-1); assay: cell-based or functional assay

| Binder | neutralization IC50 [µg/mL] |
| --- | --- |
| B1 | 0.335 |
| B2 | 1.76 |
| B3 | > 50 |

target: HIV-1 Env of ZM214.15 (HIV-1); assay: cell-based or functional assay

| Binder | neutralization IC50 [µg/mL] |
| --- | --- |
| B1 | > 50 |
| B2 | > 50 |
| B3 | > 50 |

target: HIV-1 Env of MB201 (HIV-1); assay: cell-based or functional assay

| Binder | neutralization IC50 [µg/mL] |
| --- | --- |
| B1 | > 50 |
| B2 | > 50 |
| B3 | > 50 |

target: HIV-1 Env of ZM109.4 (HIV-1); assay: cell-based or functional assay

| Binder | neutralization IC50 [µg/mL] |
| --- | --- |
| B1 | > 50 |
| B2 | > 50 |
| B3 | > 50 |

target: HIV-1 Env of CM244.ec1 (HIV-1); assay: cell-based or functional assay

| Binder | neutralization IC50 [µg/mL] |
| --- | --- |
| B1 | 0.914 |
| B2 | 26.7 |
| B3 | > 50 |

target: HIV-1 Env of UG037.8 (HIV-1); assay: cell-based or functional assay

| Binder | neutralization IC50 [µg/mL] |
| --- | --- |
| B1 | > 50 |
| B2 | > 50 |
| B3 | > 50 |

target: HIV-1 Env of PVO.04 (HIV-1); assay: cell-based or functional assay

| Binder | neutralization IC50 [µg/mL] |
| --- | --- |
| B1 | 2.48 |
| B2 | 10.8 |
| B3 | > 50 |

target: HIV-1 Env of THRO.18 (HIV-1); assay: cell-based or functional assay

| Binder | neutralization IC50 [µg/mL] |
| --- | --- |
| B1 | > 50 |
| B2 | > 50 |
| B3 | > 50 |

target: HIV-1 Env of C1080.c3 (HIV-1); assay: cell-based or functional assay

| Binder | neutralization IC50 [µg/mL] |
| --- | --- |
| B1 | > 50 |
| B2 | 0.018 |
| B3 | > 50 |

target: HIV-1 Env of DU172.17 (HIV-1); assay: cell-based or functional assay

| Binder | neutralization IC50 [µg/mL] |
| --- | --- |
| B1 | > 50 |
| B2 | > 50 |
| B3 | > 50 |

target: HIV-1 Env of ZM233.6 (HIV-1); assay: cell-based or functional assay

| Binder | neutralization IC50 [µg/mL] |
| --- | --- |
| B1 | 0.228 |
| B2 | 0.322 |
| B3 | > 50 |

target: HIV-1 Env of 6535.3 (HIV-1); assay: cell-based or functional assay

| Binder | neutralization IC50 [µg/mL] |
| --- | --- |
| B1 | > 50 |
| B2 | > 50 |
| B3 | > 50 |

target: HIV-1 Env of ZM53.12 (HIV-1); assay: cell-based or functional assay

| Binder | neutralization IC50 [µg/mL] |
| --- | --- |
| B1 | 0.072 |
| B2 | 0.081 |
| B3 | 0.211 |

target: HIV-1 Env of RW020.2 (HIV-1); assay: cell-based or functional assay

| Binder | neutralization IC50 [µg/mL] |
| --- | --- |
| B1 | > 50 |
| B2 | > 50 |
| B3 | > 50 |

target: HIV-1 Env of TRJO.58 (HIV-1); assay: cell-based or functional assay

| Binder | neutralization IC50 [µg/mL] |
| --- | --- |
| B1 | > 50 |
| B2 | > 50 |
| B3 | > 50 |

target: HIV-1 Env of CAP256.PI (HIV-1); assay: cell-based or functional assay

| Binder | neutralization IC50 [µg/mL] |
| --- | --- |
| B1 | > 50 |
| B2 | > 50 |
| B3 | > 50 |

target: HIV-1 Env of CAP244.D3 (HIV-1); assay: cell-based or functional assay

| Binder | neutralization IC50 [µg/mL] |
| --- | --- |
| B1 | > 50 |
| B2 | > 50 |
| B3 | > 50 |

target: HIV-1 Env of 191821.E6.1 (HIV-1); assay: cell-based or functional assay

| Binder | neutralization IC50 [µg/mL] |
| --- | --- |
| B1 | > 50 |
| B2 | > 50 |
| B3 | > 50 |

target: HIV-1 Env of ZM197.7 (HIV-1); assay: cell-based or functional assay

| Binder | neutralization IC50 [µg/mL] |
| --- | --- |
| B1 | 0.346 |
| B2 | 0.055 |
| B3 | > 50 |

target: HIV-1 Env of AC10.29 (HIV-1); assay: cell-based or functional assay

| Binder | neutralization IC50 [µg/mL] |
| --- | --- |
| B1 | > 50 |
| B2 | > 50 |
| B3 | > 50 |

target: HIV-1 Env of DU422.01 (HIV-1); assay: cell-based or functional assay

| Binder | neutralization IC50 [µg/mL] |
| --- | --- |
| B1 | 8.2 |
| B2 | 11.5 |
| B3 | > 50 |

target: HIV-1 Env of 0260.v5.c36 (HIV-1); assay: cell-based or functional assay

| Binder | neutralization IC50 [µg/mL] |
| --- | --- |
| B1 | > 50 |
| B2 | > 50 |
| B3 | > 50 |

target: HIV-1 Env of REJO.67 (HIV-1); assay: cell-based or functional assay

| Binder | neutralization IC50 [µg/mL] |
| --- | --- |
| B1 | > 50 |
| B2 | > 50 |
| B3 | > 50 |

target: HIV-1 Env of Q769.d22 (HIV-1); assay: cell-based or functional assay

| Binder | neutralization IC50 [µg/mL] |
| --- | --- |
| B1 | > 50 |
| B2 | > 50 |
| B3 | > 50 |

target: HIV-1 Env of TRO.11 (HIV-1); assay: cell-based or functional assay

| Binder | neutralization IC50 [µg/mL] |
| --- | --- |
| B1 | > 50 |
| B2 | > 50 |
| B3 | > 50 |

target: HIV-1 Env of Q842.d12 (HIV-1); assay: cell-based or functional assay

| Binder | neutralization IC50 [µg/mL] |
| --- | --- |
| B1 | > 50 |
| B2 | > 50 |
| B3 | > 50 |

target: HIV-1 Env of CAAN.A2 (HIV-1); assay: cell-based or functional assay

| Binder | neutralization IC50 [µg/mL] |
| --- | --- |
| B1 | > 50 |
| B2 | > 50 |
| B3 | > 50 |

target: HIV-1 Env of MB539.2B7 (HIV-1); assay: cell-based or functional assay

| Binder | neutralization IC50 [µg/mL] |
| --- | --- |
| B1 | > 50 |
| B2 | > 50 |
| B3 | > 50 |

target: HIV-1 Env of RHPA.7 (HIV-1); assay: cell-based or functional assay

| Binder | neutralization IC50 [µg/mL] |
| --- | --- |
| B1 | > 50 |
| B2 | > 50 |
| B3 | > 50 |

target: HIV-1 Env of CAP45.G3 (HIV-1); assay: cell-based or functional assay

| Binder | neutralization IC50 [µg/mL] |
| --- | --- |
| B1 | > 50 |
| B2 | > 50 |
| B3 | > 50 |

target: HIV-1 Env of 3016.V5.c36 (HIV-1); assay: cell-based or functional assay

| Binder | neutralization IC50 [µg/mL] |
| --- | --- |
| B1 | 0.017 |
| B2 | 0.3 |
| B3 | 7.93 |

target: HIV-1 Env of Q461.e2 (HIV-1); assay: cell-based or functional assay

| Binder | neutralization IC50 [µg/mL] |
| --- | --- |
| B1 | > 50 |
| B2 | > 50 |
| B3 | > 50 |

target: HIV-1 Env of SC422.8 (HIV-1); assay: cell-based or functional assay

| Binder | neutralization IC50 [µg/mL] |
| --- | --- |
| B1 | > 50 |
| B2 | > 50 |
| B3 | > 50 |

target: HIV-1 Env of DU156.12 (HIV-1); assay: cell-based or functional assay

| Binder | neutralization IC50 [µg/mL] |
| --- | --- |
| B1 | > 50 |
| B2 | > 50 |
| B3 | > 50 |

target: HIV-1 Env of CAP256.SU (HIV-1); assay: cell-based or functional assay

| Binder | neutralization IC50 [µg/mL] |
| --- | --- |
| B1 | 0.031 |
| B2 | 0.055 |
| B3 | 0.032 |

target: HIV-1 Env of 6405.v4.c34 (HIV-1); assay: cell-based or functional assay

| Binder | neutralization IC50 [µg/mL] |
| --- | --- |
| B1 | > 50 |
| B2 | > 50 |
| B3 | > 50 |

target: HIV-1 Env of 96ZM651.02 (HIV-1); assay: cell-based or functional assay

| Binder | neutralization IC50 [µg/mL] |
| --- | --- |
| B1 | > 50 |
| B2 | > 50 |
| B3 | > 50 |

target: HIV-1 Env of BG505.w6m (HIV-1); assay: cell-based or functional assay

| Binder | neutralization IC50 [µg/mL] |
| --- | --- |
| B1 | > 50 |
| B2 | 4.2 |
| B3 | > 50 |

target: HIV-1 Env of Q259.d2.17 (HIV-1); assay: cell-based or functional assay

| Binder | neutralization IC50 [µg/mL] |
| --- | --- |
| B1 | 24.6 |
| B2 | > 50 |
| B3 | > 50 |

target: HIV-1 Env of ZM249.1 (HIV-1); assay: cell-based or functional assay

| Binder | neutralization IC50 [µg/mL] |
| --- | --- |
| B1 | > 50 |
| B2 | 34.5 |
| B3 | > 50 |

target: HIV-1 Env of KER2008.12 (HIV-1); assay: cell-based or functional assay

| Binder | neutralization IC50 [µg/mL] |
| --- | --- |
| B1 | > 50 |
| B2 | > 50 |
| B3 | > 50 |

target: HIV-1 Env of QH0692.42 (HIV-1); assay: cell-based or functional assay

| Binder | neutralization IC50 [µg/mL] |
| --- | --- |
| B1 | > 50 |
| B2 | > 50 |
| B3 | > 50 |

target: HIV-1 Env of ZM135.10a (HIV-1); assay: cell-based or functional assay

| Binder | neutralization IC50 [µg/mL] |
| --- | --- |
| B1 | > 50 |
| B2 | > 50 |
| B3 | > 50 |

target: HIV-1 Env of Q23.17 (HIV-1); assay: cell-based or functional assay

| Binder | neutralization IC50 [µg/mL] |
| --- | --- |
| B1 | 2.59 |
| B2 | > 50 |
| B3 | > 50 |

target: HIV-1 Env of CAP210.E8 (HIV-1); assay: cell-based or functional assay

| Binder | neutralization IC50 [µg/mL] |
| --- | --- |
| B1 | 0.1 |
| B2 | 0.073 |
| B3 | 0.072 |

target: HIV-1 Env of WITO.33 (HIV-1); assay: cell-based or functional assay

| Binder | neutralization IC50 [µg/mL] |
| --- | --- |
| B1 | > 50 |
| B2 | > 50 |
| B3 | > 50 |
